# According to US9113649B2, “Food additive comprising an amidase for detoxifying ochratoxin” (DuPont Nutrition Biosciences ApS, priority 2010, dated 2015):
# B1: recombinant amidase 2: amidase 2 from transgenic A. niger intracellular preparation, a mixture of intracellular fractions of transformants 3, 4, 7-8, 10-11 and 13-15 (protein)
# chain: MVRRIASATPMVQSPMSPLGTTYCVRPNPVSLNLQRRPLVIASTDEAKVTIIYAGLLIPGDGEPLRNAALVISDKIIAFVGSEADIPKKYLRSTQSTHRVPVLMPGLWDCHMHFGGDDDYYNDYTSGLATHPASSGARLARGCWEALQNGYTSYRDLAGYGCEVAKAINDGTIVGPNVYSSGAALSQTAGHGDIFALPAGEVLGSYGVMNPRPGYWGAGPLCIADGVEEVRRAVRLQIRRGAKVIKVMASGGVMSRDDNPNFAQFSPEELKVIVEEAARQNRIVSAHVHGKAGIMAAIKAGCKSLEHVSYADEEVWELMKEKGILYVATRSVIEIFLASNGEGLVKESWAKLQALADSHLKAYQGAIKAGVTIALGTDTAPGGPTALELQFAVERGGMTPLEAIKAATANAPLSVGPQAPLTGQLREGYEADVIALEENPLEDIKVFQEPKAVTHVWKGGKLFKGPGIGPWGEDARNPFL
# modifications: Aspergillus niger
# B2: amidase 2 sig: full length 480 amino acid A. niger amidase 2 with N-terminal or signal sequence, MW about 51 kDa; intracellular fraction (protein)
# chain: B1 chain
# modifications: Aspergillus niger
# notes: intracellular fraction
# B3: amidase 2 mat: secreted mature 438 amino acid amidase 2 from A. niger, MW about 47 kDa, N-terminal 42 amino acids cleaved (protein)
# chain: STDEAKVTIIYAGLLIPGDGEPLRNAALVISDKIIAFVGSEADIPKKYLRSTQSTHRVPVLMPGLWDCHMHFGGDDDYYNDYTSGLATHPASSGARLARGCWEALQNGYTSYRDLAGYGCEVAKAINDGTIVGPNVYSSGAALSQTAGHGDIFALPAGEVLGSYGVMNPRPGYWGAGPLCIADGVEEVRRAVRLQIRRGAKVIKVMASGGVMSRDDNPNFAQFSPEELKVIVEEAARQNRIVSAHVHGKAGIMAAIKAGCKSLEHVSYADEEVWELMKEKGILYVATRSVIEIFLASNGEGLVKESWAKLQALADSHLKAYQGAIKAGVTIALGTDTAPGGPTALELQFAVERGGMTPLEAIKAATANAPLSVGPQAPLTGQLREGYEADVIALEENPLEDIKVFQEPKAVTHVWKGGKLFKGPGIGPWGEDARNPFL
# modifications: Aspergillus niger
# notes: secreted mature 438 amino acid amidase 2 from A. niger, MW about 47 kDa, N-terminal 42 amino acids cleaved
# Columns and labels:
# [1] = pH optimum of amidase 2 in degrading OTA; assay type: biochemical; conditions: 30° C., 60 min; followed by pH 6 and 8; pH 5 and 9
# Description: The reaction mixture contained 5 μl amidase 2 mixture (a mixture of the intracellular fractions of transformant 3, 4, 7-8, 10-11 and 13-15) with a protein concentration of 155 μg protein/ml), 0.1 ml 67 mM phosphate buffer (pH3, 4, 5, 6, 7, 8 and 9), 25 μl OTA (1 μg/ml). The reaction was performed at 30° C. for 60 min and stopped by the addition of 0.13 ml acetonitrile containing 0.2% HAC. An injection volume of 10 μl was used for RP-HPLC analysis of remaining OTA after filtering.
# Five microliters of enzyme solution were combined with […] OTA 1 μg/mL diluted in different buffers: 50 mM sodium acetate buffer (pH 4, 4.5, 5 and 5.5); 50 mM MES-NaOH buffer (pH 6, 6.5 and 7); 50 mM Tris-HCl buffer (pH 7.5, 8 and 8.5).
# [2] = pH and temperature stability of amidase 2 at 70° C.; assay type: biochemical; conditions: between pH 6 and 9; pre-incubated 30 min; stability decreased with the decrease in pH
# Description: The reaction mixture contained 5 μl amidase 2 mixture (155 μg protein/ml), 45 μl 67 mM phosphate buffer at either pH3, 4, 5, 6, 7, 8 or 9. The reaction mixes were incubated at 70° C. for 30 min, before 2 μl 0.5 mg/ml OTA in ethanol and 80 μl 0.2M Mops pH 7.0 were added and the samples incubated at 30° C. for 60 min. The reaction was stopped by adding 130 μl acetonitrile containing 0.2% HAC, filtered and analysed by RP-HPLC.
# Further more the recombinant amidase 2 was quite stable at 70° C. between pH 6 and 9. The stability decreased with the decrease in pH (FIG. 13). Activity was assayed at pH 7.0 and 30° C. The pre-incubation mixture contained 5 μl amidase 2 mixture (155 μg protein/ml), 45 μl 67 mM phosphate buffer (pH3, 4, 5, 6, 7, 8 and 9). The samples were pre-incubated at 70° C. for 30 min. After cooling to 30° C., 2 μl 0.5 mg/ml OTA in ethanol and 80 μl 0.2M Mops-NaOH (pH 7.0) were added and the reaction incubated at 30° C. for 60 min. The reaction was stopped by adding 130 μl acetonitrile containing 0.2% HAC, filtered and injected on RP-HPLC with an injection of 5 μl to monitor the remaining OTA.
# [3] = heat stability of amidase 2 at 80° C.; assay type: biochemical; conditions: 5-30 min pre-incubation at 80° C., pH7.0
# Description: The pre-incubation mixture in a 1.5 ml ependorpf tube contained 5 μl of the amidase 2 mixture (155 μg protein/ml), and 45 μl 67 mM phosphate buffer pH7.0. The samples were pre-incubated at 80° C. for 0, 5, 10, 15, 20, 25 and 30 min. After cooling to 15° C., 50 μl 67 mM phosphate buffer and 25 μl OTA (1 μg/ml) were added to start the reaction this was incubated at 30° C. for 60 min, the reaction was stopped by the addition of 130 μl acetonitrile containing 0.2% HAC. An injection volume of 10 μl was used for RP-HPLC analysis of remaining OTA after filtering.
# The reaction mixture of 5 μl enzyme plus 45 μl 68 mM sodium phosphate (pH7.0) was incubated at 80° C. for 0-30 min before adding another 50 μl the phosphate buffer and 25 μl 1 μg/ml OTA, and incubated at 30° C. for 60 min. The reaction was stopped by adding 130 μl acetonitrile containing 0.2% acetic acid (v/v). The reaction mixture was filtered and injected (10 μl) for HPLC analysis. Ctrl was control where no amidase was added.
# [4] = degradation of OTA in corn flour by amidase 2 sig; assay type: biochemical; conditions: 800 ppb at the start, 3.1 μg protein, 37° C., 22 hr
# Description: For corn flour, 50 mg corn flour was added 210 μl water, 8 μl OTA (25 μg/ml) and 20 μl amidase 2 sig (3.1 μg protein), mixed and incubated at 37° C. for 22 hr. The OTA concentration decreased from 800 ppb at the start to 14 ppb at the end. OTA analysis by HPLC is described in the materials and methods section above.
# [5] = sensitivity of OTA hydrolysis to CaCl2 and EDTA; assay type: biochemical
# Description: One protease inhibitor cocktail (PIC) tablet (Roche Applied Science, Mannhein, Germany) was dissolved in 1.5 mL. milliQ water to obtain a 7× stock solution. For formamidase inhibition assay, instead of 100 μL milliQ water normally employed, 20 μL of 7×PIC stock solution and 80 μL of milliQ water were mixed with other components listed in formamidase activity assay section. For OTA degrading activity, 35 μL 7×PIC solution were mixed with 210 μL OTA 1 μg/mL and 5 μL enzyme solution. […] For controls, inhibitor solution is replaced either by milliQ water for formamidase activity assay or MES-NaOH pH7 buffer for OTA degrading activity.
# Also it is known that the OTA degrading activity in the Amano™ lipase product is sensitive to EDTA.
# […] The reaction was performed at 37° C. for 30 min and stopped by adding 150 μl acetonitrile containing 0.2% acetic acid. OTA and its product OT-alpha (=ODα) were analyzed on RP-HPLC on C18 column with an injection of 5 μl. Positive control (PC) contained no additives other than the buffer the amidase and OTA. Blank contained only buffer and OTA.
# [6] = degradation of OTA in DDGS by amidase 2 sig; assay type: biochemical; conditions: DDGS slurry pH 6.7; 800 ppb at start; 3.1 μg protein; 37° C., 22 hr
# Description: For DDGS, 1 g was suspended in 10 ml water, pH adjusted to 6.7 with NaOH. To 210 μl of this slurry was added 8 μl OTA (25 μg/ml) and 20 μl amidase 2 sig (3.1 μg protein), mixed and incubated at 37° C. for 22 hr. The OTA concentration decreased from 800 ppb at start to 5 ppb at the end. OTA analysis by HPLC was described in the materials and methods section above.
# [7] = degradation of OTA in milk by amidase 2 mat; assay type: biochemical; conditions: light milk; 47 ppb at start; 0.22 μg protein; 40° C., 2.5 hr
# Description: Light milk (1.5% fat, protein 3.4 g, carbohydrate 4.7 g Calcium 120 mg, Phosphorus 95 mg in 100 ml) from Aria Foods Amba (Aarhus, Denmark) 0.15 ml, 3 μl OTA (2.5 μg/ml), 7.5 μl purified amidase 2 mat (from the broth of A. niger harboring the amidase 2 gene) containing 0.22 μg protein were mixed and reacted at 40° C. for 2.5 hr. The OTA decreased from 47 ppb at start to undetectable level (<2 ppb) after 2.5 hr incubation. OTA analysis by HPLC was described in the materials and methods section above.
# [8] = detoxification of OTA in corn-soy based feed by amidase 2 mat; assay type: biochemical; conditions: from 38 ppm, 20 hr incubation
# Description: (§1) The reaction mixture in 1.5 ml eppendorf tubes (C1-3) comprised 60 mg corn flower, 200 μl Mops-NaOH (0.2 M pH7.0), 40 μl amidase 2 mixture (which was mixture of an equal volume of the broth of A. niger transformant having amdiase 2 gene 3, 4, 7, 8, 10, 11, 13, 14, and 15), 20 μl OTA (0.5 mg/ml). Total volume of the three components was 260 μl; final OTA was 38 μg/ml or 38 ppm (ppm, parts per million). Control: Tubes of Controls (C-4-6) were the same as C1-3 except that the amidase preparation (the broth) was replaced with water.
# (§2) The reaction was performed at 30° C. with skaking for 20 hr before the addition of equal volume of acetonitrile 260 μl containing 0.2% acetic acid to stop the reaction and to extract the OTA. After centrifugation and filter, the filtrate was analyzed on HPLC.
# The tests of amidase 2 mat with soy-corn based feed (whose composition is given in Table 3) contaminated with OTA was exactly as the test with corn flour, that is, tubes S1-3 (experimental) were with the broth while for tubes S 5-6 (controls) water replaced the broth. After 20 hr incubation, the OTA level was reduced from 38 ppm to 6.6 ppm, a reduction of 6 times or 82%.
# [9] = assay type: biochemical; conditions: same concentration, optimum conditions, one hour
# Description: The enzyme solution of Amidase 2 mat obtained after AEX was tested on ochratoxin B at the same concentration under optimum conditions for one hour. The degrading rate with ochratoxin B was 8% compared to OTA.
# [10] = detoxification of OTA in corn flour by amidase 2 mat; assay type: biochemical; conditions: from 38 ppm, 30° C., 20 hr, pH7.0
# Description: as §1, §2
# [11] = OTA degradation as a function of amidase 2 mat concentration; assay type: biochemical
# Description: The amidase used was purified from the broth of transformant 13 (438aa protein referred to as amidase 2 mat).
# Ochratoxin A (OTA) degrading activity of amidase 2 mat purified from the fermentation broth of A. niger harboring the amidase 2 gene as a function of its concentration is shown in FIG. 15. It can be seen from FIG. 15 that the degradation of OTA was amidase 2 mat concentration dependent. One can also see that after 30 min with an amidase 2 mat concentration of 160 ng/ml the OTA decreased by 83%. From the linear region of FIG. 15 the calculated specific activity for amidase 2 mat was 900 nanomole OTA hydrolyzed per min per mg protein at pH7.0 and 40° C. at an OTA concentration of 1 μg/ml reaction mixture. The reaction for FIG. 15 was performed in 0.1 Mops-NaOH (pH 7.0) and 40° C. for 30 min before it was stopped by adding equal volume of acetonitrile containing 0.2% acetic acid and analyzed on RP-HPLC on a C18 column as described in the Material and Method section.
molecule,measurement,setting,value
B1,pH of highest enzyme activity,[1],7.0 pH
same,stability at 70° C.,[2],quite stable
same,activity remained after pre-incubation,[3],more than 80%
B2,OTA concentration at the end,[4],14 ppb
same,inhibition by CaCl2,"[5]; 8 mM CaCl2, intracellular fraction of transgenic A. niger",not appreciably inhibited
same,inhibition by CaCl2,"[5]; 20 mM CaCl2, 37° C., 30 min, pH7.0",no inhibition
same,inhibition by EDTA,"[5]; 20 mM EDTA, 37° C., 30 min, pH7.0",no inhibition
same,OTA concentration at the end,[6],5 ppb
B3,OTA after incubation,[7],< 2 ppb
same,inhibition of activity in the hydrolysis of OTA,"[5]; 8 mM CaCl2, enzyme purified from the Amano™ lipase product",around 40%
same,inhibition of activity in the hydrolysis of OTA,"[5]; 8 mM CaCl2, enzyme purified from the broth of transgenic A. niger",around 40%
same,inhibition by extra EDTA,[5]; data not shown,inhibited
same,OTA level after incubation,[8],6.6 ppm
same,degrading rate with ochratoxin B compared to OTA,[9],8%
same,remaining OTA,[10],less than 2 ppb
same,OTA decrease,"[11]; 160 ng/ml amidase 2 mat, 30 min, pH 7.0, 40° C.",83%
same,specific activity,"[11]; pH7.0 and 40° C., OTA 1 μg/ml reaction mixture, calculated from linear region of FIG. 15",900 nanomole OTA hydrolyzed per min per mg protein
